# Test results published in paper PMC4944158.
# Molecular target: GST-RabGAP5 C-terminal aa578-760
# Assay: pull-down; GST fusion on Glutathione Sepharose beads incubated with supernatants of homogenised synaptosomes of wt and σ1B −/− mouse brains, 4 hours at RT, PBS; Western blot
substance,measurement,value
AP-1/σ1A complexes of σ1B −/− mice (from UniProt P22892 1-822; O35643 1-943; P35585 1-423; P61967 1-158),percent more AP-1 isolated than from wt extracts,30%
